Consider three molecules from PMC10908835, “Alternative low-populated conformations prompt phase transitions in polyalanine repeat expansions” (Nature Communications, 2024).

Data set [1] has as its target T1, human HSP90β (named HSP90) (human, UniProt P08238 1-724).
T1 construct: Unlabelled in the NMR titrations
The experiment in a line: NMR titration; 15N-HSQC signal intensity; 0.07 mM 15N/13C XS26 with fresh 0.14 mM unlabelled HSP70 or HSP90 (1:2), 25 °C, 20 mM Hepes, 10 mM NaCl, 5 mM MgCl2, 2 mM ATP, 1 mM DTT, pH 6.8. Particulars: both partners purified.

Data set [2] deals with T2, human HSP72 (named HSP70) (human, UniProt P0DMV8 1-641).
T2 construct: Unlabelled in the NMR titrations; 2 mM ATP and 5 mM MgCl2 in the buffer
T2 sequence (P0DMV8 whole entry): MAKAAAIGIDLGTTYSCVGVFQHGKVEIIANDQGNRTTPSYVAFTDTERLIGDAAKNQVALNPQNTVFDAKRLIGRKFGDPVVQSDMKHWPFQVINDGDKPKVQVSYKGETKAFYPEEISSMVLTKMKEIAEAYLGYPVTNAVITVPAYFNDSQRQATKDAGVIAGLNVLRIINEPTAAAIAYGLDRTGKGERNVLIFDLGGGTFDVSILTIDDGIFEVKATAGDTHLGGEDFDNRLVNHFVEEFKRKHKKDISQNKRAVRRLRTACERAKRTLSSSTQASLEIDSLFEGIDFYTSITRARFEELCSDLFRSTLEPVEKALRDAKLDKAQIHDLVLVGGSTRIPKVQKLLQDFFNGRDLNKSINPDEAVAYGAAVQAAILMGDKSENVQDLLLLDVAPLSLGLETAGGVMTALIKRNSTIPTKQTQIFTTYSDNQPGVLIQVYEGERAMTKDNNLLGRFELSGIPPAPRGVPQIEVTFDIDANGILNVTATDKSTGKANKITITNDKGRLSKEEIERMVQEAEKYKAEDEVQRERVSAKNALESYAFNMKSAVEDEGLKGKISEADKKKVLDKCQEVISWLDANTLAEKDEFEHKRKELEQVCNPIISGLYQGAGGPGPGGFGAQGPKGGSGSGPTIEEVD
The data set is described as above. As to conditions: both partners purified.

Data set [3] concerns the molecule itself. The experiment in a line: NMR 15N spin relaxation (overall correlation time against that computed for the helix); 0.05 and 0.5 mM XS20, 0.5 mM XS23, 0.5 mM XS26 in NMR buffer (5 mM KPi, 10 mM NaCl, 2 mM β-mercaptoethanol, pH 6.8), 25 °C, 800 MHz.
Data set [4] concerns the molecule itself. The experiment in a line: NMR 15N spin relaxation (overall correlation time against that computed for the helix); 0.5 mM 15N/13C XS20 in NMR buffer (5 mM KPi, 10 mM NaCl, 2 mM β-mercaptoethanol, pH 6.8), 5 °C, 800 MHz.

T1 sequence (P08238 whole entry): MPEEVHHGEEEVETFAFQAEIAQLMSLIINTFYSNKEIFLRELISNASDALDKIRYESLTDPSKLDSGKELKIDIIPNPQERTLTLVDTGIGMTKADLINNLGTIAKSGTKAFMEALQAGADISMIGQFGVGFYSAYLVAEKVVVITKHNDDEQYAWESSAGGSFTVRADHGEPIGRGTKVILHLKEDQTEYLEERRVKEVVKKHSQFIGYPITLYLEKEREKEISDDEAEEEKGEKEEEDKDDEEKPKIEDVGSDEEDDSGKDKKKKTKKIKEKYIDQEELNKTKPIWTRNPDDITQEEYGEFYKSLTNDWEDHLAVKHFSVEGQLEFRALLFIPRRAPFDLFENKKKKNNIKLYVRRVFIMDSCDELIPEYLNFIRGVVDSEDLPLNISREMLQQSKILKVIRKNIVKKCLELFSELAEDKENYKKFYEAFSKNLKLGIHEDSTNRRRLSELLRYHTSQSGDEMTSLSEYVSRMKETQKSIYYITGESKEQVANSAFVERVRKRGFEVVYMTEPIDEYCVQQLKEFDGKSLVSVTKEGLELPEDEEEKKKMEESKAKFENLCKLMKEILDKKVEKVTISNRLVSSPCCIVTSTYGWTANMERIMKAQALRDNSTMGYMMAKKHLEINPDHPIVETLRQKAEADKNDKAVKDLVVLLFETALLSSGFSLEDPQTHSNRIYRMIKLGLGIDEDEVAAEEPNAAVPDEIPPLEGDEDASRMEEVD

B1: human PHOX2B fragment 228-314 with a +6 Ala expansion (XS26) (domain or fragment, UniProt Q99453 228-314, looked up)
chain: GPGGPGGEPGKGGAAAAAAAAAAAAAAAAAAAAAAAAAAGGLAAAGGPGQGWAPGPGPITSIPDSLGGPFASVLSSLQRPNGAKAALVKSSMF
notes: Made by mutagenic PCR; 15N/13C-labelled for NMR titrations; also called +6 Ala variant; expanded PHOX2B; not shown: Thioredoxin, N-terminal, cleaved; His6, N-terminal, cleaved
Take B1: the binding result in data set [1], in data set [2] and in data set [3] was “binds” throughout.

B2: human PHOX2B fragment 228-314 (XS20) (domain or fragment, UniProt Q99453 228-314, looked up)
chain: GPGGPGGEPGKGGAAAAAAAAAAAAAAAAAAAAGGLAAAGGPGQGWAPGPGPITSIPDSLGGPFASVLSSLQRPNGAKAALVKSSMF
notes: Paired mesoderm homeobox protein 2B (PHOX2B), human, residues 228-314, holds the 20-alanine tract (residues 241-260); 15N/13C-labelled for NMR; also called PHOX2B C-terminal fragment; wild-type PHOX2B; not shown: Thioredoxin, N-terminal, cleaved; His6, N-terminal, cleaved
Take B2: the binding result in data set [4] is on record as “binds”.

B3: human PHOX2B fragment 228-314 with a +3 Ala expansion (XS23) (domain or fragment, UniProt Q99453 228-314, looked up)
chain: GPGGPGGEPGKGGAAAAAAAAAAAAAAAAAAAAAAAGGLAAAGGPGQGWAPGPGPITSIPDSLGGPFASVLSSLQRPNGAKAALVKSSMF
notes: PHOX2B, human, residues 228-314 (wild-type numbering) with 3 alanines added to the 20-alanine tract (241-260); Made by mutagenic PCR; 15N/13C-labelled for NMR; also called +3 Ala variant; +3 PARM; not shown: Thioredoxin, N-terminal, cleaved; His6, N-terminal, cleaved
For B3, the binding result in data set [3] is “binds”.
